# Measurements reported in US12304944.
# Assays:
# [1] = test system: hFIX R338L (codon-optimized human factor IX carrying the R338L mutation)
# [2] = test system: hFIX R338L-2Fc (codon-optimized human factor IX R338L, XIa-cleavable linker, IgG1 Fc, 3xGGGS linker, IgG1 Fc)
# hFIX R338L-2Fc (codon-optimized human factor IX R338L, XIa-cleavable linker, IgG1 Fc, 3xGGGS linker, IgG1 Fc), sequence (chain, as listed by the source R338L R338L): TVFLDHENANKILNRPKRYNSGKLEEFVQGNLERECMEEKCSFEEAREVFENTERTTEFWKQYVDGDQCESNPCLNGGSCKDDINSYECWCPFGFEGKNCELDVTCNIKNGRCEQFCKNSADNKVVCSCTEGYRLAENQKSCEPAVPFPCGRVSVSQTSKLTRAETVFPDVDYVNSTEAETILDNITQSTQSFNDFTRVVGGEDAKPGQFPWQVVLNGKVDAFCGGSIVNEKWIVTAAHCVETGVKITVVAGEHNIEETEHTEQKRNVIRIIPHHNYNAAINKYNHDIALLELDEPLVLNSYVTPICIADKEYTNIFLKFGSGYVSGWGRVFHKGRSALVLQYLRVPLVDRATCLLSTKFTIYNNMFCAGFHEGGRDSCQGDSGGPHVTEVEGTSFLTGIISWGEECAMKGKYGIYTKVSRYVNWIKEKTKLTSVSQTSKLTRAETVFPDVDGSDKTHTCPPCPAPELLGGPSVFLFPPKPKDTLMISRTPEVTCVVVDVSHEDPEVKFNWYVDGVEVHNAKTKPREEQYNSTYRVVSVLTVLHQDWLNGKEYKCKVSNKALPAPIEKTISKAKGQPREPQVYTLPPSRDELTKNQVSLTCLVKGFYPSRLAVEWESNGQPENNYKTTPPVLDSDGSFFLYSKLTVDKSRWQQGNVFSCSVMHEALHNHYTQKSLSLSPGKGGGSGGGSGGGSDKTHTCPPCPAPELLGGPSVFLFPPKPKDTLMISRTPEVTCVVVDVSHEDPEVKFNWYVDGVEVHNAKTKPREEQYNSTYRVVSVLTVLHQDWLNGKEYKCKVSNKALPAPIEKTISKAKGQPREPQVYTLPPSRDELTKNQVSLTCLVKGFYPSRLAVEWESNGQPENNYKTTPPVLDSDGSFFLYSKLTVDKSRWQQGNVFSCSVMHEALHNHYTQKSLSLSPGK
# hFIX R338L (codon-optimized human factor IX carrying the R338L mutation), sequence (chain, as listed by the source R338L R338L): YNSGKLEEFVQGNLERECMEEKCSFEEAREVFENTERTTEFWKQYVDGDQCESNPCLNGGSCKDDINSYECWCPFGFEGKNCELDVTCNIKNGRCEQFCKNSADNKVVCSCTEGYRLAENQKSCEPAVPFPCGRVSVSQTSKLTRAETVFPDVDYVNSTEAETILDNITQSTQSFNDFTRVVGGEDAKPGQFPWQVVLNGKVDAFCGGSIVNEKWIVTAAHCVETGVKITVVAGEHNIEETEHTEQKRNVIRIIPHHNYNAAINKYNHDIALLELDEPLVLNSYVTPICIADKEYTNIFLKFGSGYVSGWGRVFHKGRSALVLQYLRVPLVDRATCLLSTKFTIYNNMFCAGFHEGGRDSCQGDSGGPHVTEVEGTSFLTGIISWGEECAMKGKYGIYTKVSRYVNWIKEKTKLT
substance,measurement,setting,value
activated factor XI (XIa),"cleavage by XIa, western blot of conditioned media treated or not with XIa",[1],Only low levels of partial XIa cleavage of media derived unpurified hFIX could be observed
same,"cleavage by XIa, western blot of conditioned media treated or not with XIa",[2],Only low levels of partial XIa cleavage of media derived unpurified hFIX could be observed
same,processing by XIa in vitro,[2],its translated protein was efficiently processed by XIa
